{"source": "patent US12653898B2", "about": "“Polyoxyethylene derivatives and conjugates thereof” (NATIONAL UNIVERSITY CORPORATION HOKKAIDO UNIVERSITY, priority 2023, dated 2026)", "origin": "cited, not measured here", "details": "under physiological conditions", "note": "Where two headings read alike, the source gives them in different places."}
{"molecule": "conjugate of bovine pancreas-derived ribonuclease A (RNase A) and compound 7: conjugate of RNase A and compound 7 (1-benzyl-1H-1,2,3-triazole-4-carbaldehyde) of WO 2020/175680 (conjugate, UniProt P61823 27-150, looked up, triazole carbaldehyde compound 7 conjugate) Ribonuclease pancreatic: KETAAAKFERQHMDSSTSAASSSNYCNQMMKSRNLTKDRCKPVNTFVHESLADVQAVCSQKNVACKNGQTNCYQSYSTMSITDCRETGSSKYPNCAYKTTQANKHIIVACEGNPYVPVHFDASV", "values": [{"measurement": "degradation half-life", "setting": "FIG. 54 of WO 2020/175680", "result": "12 to 18", "unit": "h"}, {"measurement": "degradation half-life", "setting": "comparison value from WO 2020/175680", "result": "12 to 18", "unit": "h"}]}
